Values of other authors in paper PMC10119362.

Target: Amyloid-beta monomer (Homo sapiens) (UniProt P05067)

## Gantenerumab
  Kd: 23 nM
